Assay [1] addresses T1, human GP130 extracellular domain expressed with a C-terminal myc-myc-hexahistidine tag (human, UniProt P40189 23-619).
T1 construct: Monomeric reagent; also called hGP130-mmH; hGP130-MMH
Briefly: SPR (Biacore 4000), mAb captured on anti-human Fc, 37 C. As to the method: (§1) Equilibrium dissociation constant (KD) for different GP130 reagents binding to purified anti-GP130 monoclonal antibodies were determined using a real-time surface plasmon resonance based Biacore 4000 biosensor. All binding studies were performed in 10 mM HEPES, 150 mM NaCl, 3 mM EDTA, and 0.05% v/v Surfactant Tween-20, pH 7.4 (HBS-ET) running buffer at 25° C. and 37° C. The Biacore sensor surface was first derivatized by amine coupling with a monoclonal mouse anti-human Fc antibody (GE, #BR-1008-39) to capture anti-GP130 monoclonal antibodies. […] Reagents tagged with “mmH” are monomeric, whereas reagents tagged with “mFc” are dimeric. Thus, for example, “hGP130-mmH” is also referred to as “monomeric human GP130,” and “hGP130-mFc” is also referred to as “dimeric human GP130.”
(§2) The association rate (k a) and dissociation rate (kd) were determined by fitting the real-time binding sensorgrams to a 1:1 binding model with mass transport limitation using Scrubber 2.0c curve-fitting software. Binding dissociation equilibrium constant (KD) and dissociative half-life (t ½) were calculated from the kinetic rates as: […]
For orientation: In SPR one partner is held on a chip, and binding of the other changes the refractive index at the surface.

For assay [2], the target named is T2, Macaca fascicularis GP130 extracellular domain expressed with a C-terminal myc-myc-hexahistidine tag (Macaca fascicularis, UniProt P40189 23-619 (human entry)).
T2 construct: Monomeric reagent; also called mfGP130-mmH; mfGP130-MMH
T2 chain: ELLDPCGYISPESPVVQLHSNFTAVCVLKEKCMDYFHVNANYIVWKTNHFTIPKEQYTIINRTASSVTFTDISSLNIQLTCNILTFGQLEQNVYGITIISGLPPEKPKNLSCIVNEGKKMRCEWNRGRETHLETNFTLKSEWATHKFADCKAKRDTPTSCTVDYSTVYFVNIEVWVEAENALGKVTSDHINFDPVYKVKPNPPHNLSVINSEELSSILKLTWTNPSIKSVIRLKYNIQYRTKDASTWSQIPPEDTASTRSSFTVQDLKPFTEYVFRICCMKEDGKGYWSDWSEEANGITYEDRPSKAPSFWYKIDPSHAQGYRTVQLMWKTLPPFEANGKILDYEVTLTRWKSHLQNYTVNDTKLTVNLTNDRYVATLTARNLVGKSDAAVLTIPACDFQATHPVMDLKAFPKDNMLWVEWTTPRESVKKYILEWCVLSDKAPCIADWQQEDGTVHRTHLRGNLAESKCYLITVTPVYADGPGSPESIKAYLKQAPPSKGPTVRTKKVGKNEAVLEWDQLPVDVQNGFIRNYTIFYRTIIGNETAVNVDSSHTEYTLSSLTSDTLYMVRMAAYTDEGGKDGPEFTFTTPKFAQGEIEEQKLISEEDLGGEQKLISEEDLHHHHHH
The assay is described as above. The procedure: as §1, §2

The target in assay [3] is T2, Macaca fascicularis GP130 extracellular …. Briefly: SPR (Biacore 4000), mAb captured on anti-human Fc, 25 C. The procedure:
as §1, §2

The results in this text go back to patent US20240158497A1 (published 2024).

B1: MAb16662 (antibody, V domains shown)
VH: EVQLVESGGGLVQPGGSLRLSCTASGFTFSNYAIFWVRQAPGKGLEYVSGISNNGVTKYYADSVRDRFTISRDNSRNTVSIQMDSLRTEDMAVYYCARENWGSDDGFDIWGQGTMVTVSS
VL: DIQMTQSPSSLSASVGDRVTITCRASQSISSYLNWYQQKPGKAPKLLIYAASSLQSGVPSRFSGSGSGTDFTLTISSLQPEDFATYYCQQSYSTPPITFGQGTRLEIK
In the case of B1, in assay [1], the “100 nM Ag Bound” value amounted to 17 RU, the dissociation constant (Kd) is 134 nM, the koff stood at 0.0585 s⁻¹ and the kon is 436000 M⁻¹ s⁻¹. Also, in assay [1], the t½ turned out to be 0.2 min. Besides, in assay [2], the “100 nM Ag Bound” value was found to be 14 RU, the Kd amounted to 167 nM, the koff was 0.0592 s⁻¹ and the on-rate (kon) was determined as 355000 M⁻¹ s⁻¹. This molecule registered a t½ in assay [2] of 0.2 min. Moreover, in assay [3], the “100 nM Ag Bound” value is 15 RU, the Kd was found to be 184 nM, the koff amounted to 0.038 s⁻¹ and the kon was determined as 207000 M⁻¹ s⁻¹. The molecule also came in with a t½ in assay [3] of 0.3 min.

B2: MAb16664 (antibody, V domains shown)
VH: QVQLVQSGTEVKKPGSSVKVSCKASGGTFSTYPINWVRQAPGQGLEWMGGIIPIFGTASYAQKFQGRVAITTDESTSTAYMELNSLRSEDTAVYYCARERPNWGSNDYWGQGTLVTVSS
VL: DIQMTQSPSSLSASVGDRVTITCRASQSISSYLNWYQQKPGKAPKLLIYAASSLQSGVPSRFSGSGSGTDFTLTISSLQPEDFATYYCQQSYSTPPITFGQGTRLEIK
Take B2: in assay [1], the “100 nM Ag Bound” value amounted to 16 RU, binding was characterised by a dissociation constant (Kd) of 14.2 nM, the koff came to 0.00826 s⁻¹ and the on-rate (kon) was 580000 M⁻¹ s⁻¹. The molecule further showed a t½ in assay [1] of 1.4 min. Moreover, in assay [2], the “100 nM Ag Bound” value worked out at 16 RU, the dissociation constant Kd is 11.6 nM, the off-rate (koff) is 0.00788 s⁻¹ and the kon was found to be 680000 M⁻¹ s⁻¹. Further, in assay [2], the t½ was determined as 1.5 min. In addition, in assay [3], the “100 nM Ag Bound” value came to 13 RU, the Kd came out at 3.21 nM, the koff was found to be 0.00175 s⁻¹ and the on-rate (kon) was found to be 543000 M⁻¹ s⁻¹. This molecule also returned a t½ in assay [3] of 7 min.

B3: MAb16656 (antibody, V domains shown)
VH: EVQLVESGGGLVQPGRSLRLSCAASGFTLDDFAMHWVRQAPGKGLEWVSGISWNSGNIGYADSVKGRFTISRDNARNSLYLQMNSLRAEDTALYYCTSGYYLYYAMDVWGQGTTVTVSS
VL: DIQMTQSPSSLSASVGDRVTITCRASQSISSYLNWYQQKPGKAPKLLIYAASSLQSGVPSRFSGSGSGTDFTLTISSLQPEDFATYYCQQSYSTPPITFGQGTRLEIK
On to B3, for which, in assay [1], the “100 nM Ag Bound” value is 50 RU, the Kd came out at 60.7 nM, the koff worked out at 0.00426 s⁻¹ and the kon amounted to 70100 M⁻¹ s⁻¹. Further, the t½ in assay [1] amounted to 2.7 min. For the same molecule, in assay [2], the “100 nM Ag Bound” value was determined as 47 RU, the Kd was determined as 61.3 nM, the koff was found to be 0.00411 s⁻¹ and the kon is 67000 M⁻¹ s⁻¹. The t½ in assay [2] was found to be 2.8 min. Also, in assay [3], the “100 nM Ag Bound” value was 42 RU; the affinity, expressed as Kd, was 19 nM; the koff stood at 0.000846 s⁻¹; the kon was 44400 M⁻¹ s⁻¹. In assay [3], this molecule displayed a t½ of 14 min.

B4: MAb16659 (antibody, V domains shown)
VH: QVQLVQSGPEVKKPGSSVKVSCKASGGTIDRNEITWVRQAPGQGLEWMGVIIPILGEAHYERKFQGRLTITMDESTSTAYMELSNLRSEDTAVYYCARERAARGYLDYWGQGTLVTVSS
VL: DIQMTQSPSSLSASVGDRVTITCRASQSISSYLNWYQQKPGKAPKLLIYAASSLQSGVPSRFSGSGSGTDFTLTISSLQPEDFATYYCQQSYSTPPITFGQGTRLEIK
On to B4, for which, in assay [1], the “100 nM Ag Bound” value turned out to be 82 RU, the Kd is 1.84 nM, the koff came to 0.00171 s⁻¹ and the on-rate constant (kon) came to 928000 M⁻¹ s⁻¹. Besides, in assay [1], the t½ is 7 min. Besides, in assay [2], the “100 nM Ag Bound” value turned out to be 78 RU, the Kd came out at 2.34 nM, the koff came out at 0.00174 s⁻¹ and the kon stood at 747000 M⁻¹ s⁻¹. For the same molecule, the t½ in assay [2] was found to be 7 min. Moreover, in assay [3], the “100 nM Ag Bound” value was 74 RU, the Kd amounted to 0.812 nM, the koff was found to be 0.00044 s⁻¹ and the kon was 542000 M⁻¹ s⁻¹. Also, the t½ in assay [3] is 26 min.

As usually defined, the Kd is the constant that tells how readily two partners part at equilibrium. A high value points to lower affinity. Usually koff stands for a measure of how fast the partners let go of each other. What is called kon is the rate constant with which the complex forms. Low values mean slower complex formation, high ones faster complex formation. For orientation: t½ means the time needed for the level to fall by half in the phase considered. Low values mean rapid decline, high ones slow decline.
